Reference: US20240076315A1, “KHL POLYPEPTIDE, AND USE THEREOF IN PREPARATION OF TABP-EIC CELL” (priority 2021, published 2024)
No end group written: not given here.

What was measured:
PSMA = PSMA (Homo sapiens, UniProt Q04609); assay: Phage display peptide library (Ph.D.-12) screening for peptide binding to PSMA; conditions: three rounds of panning, Ph.D.-12 phage display library
Procedure: The present disclosure uses the Ph.D.-12 phage display peptide library kit to screen peptide KHL that specifically binds to PSMA.
Random twelve peptide phage display library: 100 μL. 1.5×10^13 pfu/mL, stored in TBS solution containing 50% glycerol, complexity-2.7×10^9 transformants-28gIII sequencing primers: 5′-HOGATTGGGATTTGCTAACAAC-3′, 100 pmol, 1 pmol/μL-96 g III sequencing primer: 5′-HOCCTCATATAGTTAGCGTAGCGTAACG-3′, 100 pmol/1 pmol/μL; E. Coli ER2738 Host bacterium F′laclq Δ(lacZ) M15 proA+B+zzf:: Tn10 (TetR)/fhuA2 supE thi Δ(lac proAB) Δ(hsdMS mcrB) 5 (rk mk McrBC−): This strain is provided in the form of a bacterial culture containing 50% glycerol, non receptive cells, and stored at −70° C.; Streptavidin, freeze-dried powder 1.5 mg; Biotin: 10 mM 100 μL.
Depending on the number and types of target molecules that need to be simultaneously selected for library selection, the selection experiment is conducted on a single sterilized polystyrene culture dish, 12 or 24 well plates, and 96 well microplates. Each target molecule is coated with at least one plate (or well), and the amount given in the following method is the amount of the 60×15 mm culture dish, the content in parentheses is the amount of the plate, and the dosage of microplate is adjusted accordingly for other medium-sized wells. However, in each case, the number of added bacteriophages is the same: 1.5×10^11 virion. […]

[1] = target: T1, cell surface antigen PSMA (Homo sapiens, UniProt Q04609); assay: Immunofluorescence detection of KHL peptide (FITC marker) on Lncap cell line; assay type: binding
T1 construct: endogenous in cells; host or cells: Lncap cells (PC3 cells as low-PSMA control)
Procedure: (§1) Immunofluorescence detection was performed on KHL peptides in Lncap cell lines with high PSMA expression and PC3 cell lines with low PSMA expression, using FITC as the fluorescent marker. The fluorescence detection of KHL peptide and Lncap cell line is shown in FIG. 1, and the fluorescence detection of KHL peptide and PC3 cell line is shown in FIG. 2.

[2] = tested on: PC3 cell lines with low PSMA expression; assay: Immunofluorescence detection of KHL peptide (FITC marker) on PC3 cell line; assay type: binding; conditions: FIG. 2
Procedure: as §1

T1 sequence (Q04609 whole entry): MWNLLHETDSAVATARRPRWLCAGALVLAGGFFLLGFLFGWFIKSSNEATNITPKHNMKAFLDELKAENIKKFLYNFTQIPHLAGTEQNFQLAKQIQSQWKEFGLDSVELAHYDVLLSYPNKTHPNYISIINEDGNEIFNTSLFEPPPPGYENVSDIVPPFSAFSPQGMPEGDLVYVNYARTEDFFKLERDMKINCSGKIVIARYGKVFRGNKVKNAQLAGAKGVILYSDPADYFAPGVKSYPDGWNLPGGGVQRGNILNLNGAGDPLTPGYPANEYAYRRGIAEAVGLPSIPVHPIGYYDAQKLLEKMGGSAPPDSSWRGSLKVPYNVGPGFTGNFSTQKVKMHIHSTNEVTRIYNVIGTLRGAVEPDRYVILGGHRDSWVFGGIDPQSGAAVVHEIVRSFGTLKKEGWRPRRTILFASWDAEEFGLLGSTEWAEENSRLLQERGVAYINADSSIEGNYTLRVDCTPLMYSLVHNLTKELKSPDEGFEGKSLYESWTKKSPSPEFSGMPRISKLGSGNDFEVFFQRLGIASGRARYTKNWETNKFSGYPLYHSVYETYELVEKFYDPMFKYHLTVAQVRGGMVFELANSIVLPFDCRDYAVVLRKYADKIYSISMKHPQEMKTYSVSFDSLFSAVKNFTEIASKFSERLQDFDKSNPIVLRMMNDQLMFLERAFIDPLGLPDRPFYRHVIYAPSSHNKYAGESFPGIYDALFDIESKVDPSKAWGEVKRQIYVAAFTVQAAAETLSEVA
Sequence of PSMA (Q04609 whole entry, species assumed): as the sequence (Q04609 whole entry) above

KHLHYHSSVRYG (also: FITC label, attachment site not given here) [FITC used as the fluorescent marker in immunofluorescence]
binding to PSMA found by peptide library screening (PSMA): specifically binding to PSMA
specificity of binding of KHL to the cell surface antigen PSMA ([1]; Lncap (high PSMA) versus PC3 (low PSMA)): high specificity
cell surface fluorescence labeled by KHL ([1]; Lncap cell lines with high PSMA expression, FITC, FIG. 1): fluorescence displayed by KHL binding to the cell surface antigen PSMA
cell surface fluorescence labeled by KHL [2]: only staining of the nucleus
